Test results taken from patent US20170137818, “APTAMER INHIBITING BIOLOGICAL ACTIVITY OF AUTOTAXIN BY BINDING WITH AUTOTAXIN, AND USE THEREOF” (RIBOMIC INC., published 2017).

B1: 12(147) (ssDNA)
DNA: CCTGGACGGAACCAGAATACTTTTGGTCTCCAGG
modifications: 2'-OMe C7,G9,A14,G15,A19,C20,A32,G33,G34; P-methyl C1,G5,G8,C12,A14,A16,A19,T21,T23,C28,C30,C31,G34; 5' 40 kDa PEG via ssH linker, 3' idT
B2: 12(139) (ssDNA)
DNA: B1 DNA
modifications: 2'-OMe C7,G9,A14,G15,A19,C20,A32,G33,G34; P-methyl C1,G5,G8,C12,A16,A19,T21,T23,C28,C30,C31; 5' idT, 3' idT
B3: 12(132) (ssDNA)
DNA: B1 DNA
modifications: 2'-OMe C7,G9,A14,G15,A19,C20,A32,G33,G34; P-methyl C1,G5,G8,C12,A16,T21,T23,C28,C30,C31; 5' idT, 3' idT
B4: 12(145) (ssDNA)
DNA: B1 DNA
modifications: 2'-OMe C7,G9,A14,G15,A19,C20,A32,G33,G34; P-methyl C1,G5,G8,C12,A16,A19,T21,T23,C28,C30,C31; 5' 40 kDa PEG via ssH linker, 3' idT
B5: 12(144) (ssDNA)
DNA: B1 DNA
modifications: 2'-OMe C7,G9,A14,G15,A19,C20,A32,G33,G34; P-methyl C1,G5,G8,C12,A16,T21,T23,C28,C30,C31,G34; 5' 40 kDa PEG via ssH linker, 3' idT
B6: 12(141) (ssDNA)
DNA: B1 DNA
modifications: 2'-OMe C7,G9,A14,G15,A19,C20,A32,G33,G34; P-methyl C1,G5,G8,C12,A14,A16,T21,T23,C28,C30,C31; 5' idT, 3' idT
B7: 12(135) (ssDNA)
DNA: B1 DNA
modifications: 2'-OMe C7,G9,A14,G15,A19,C20,A32,G33,G34; P-methyl C1,G5,G8,C12,A16,T21,T23,C28,C30,C31,G34; 5' idT, 3' idT
B8: 12(133) (ssDNA)
DNA: B1 DNA
modifications: 2'-OMe C7,G9,A14,G15,A19,C20,A32,G33,G34; P-methyl G8,C12,C28; 5' 40 kDa PEG via ssH linker, 3' idT
B9: SEQ 8 aptamer (ssDNA)
DNA: GTGGTCTAGCTGTACTCCGAAAGCCGGAACCGTGCCAATGGTCGCTACTTCAGCTCCCCACAGTCAACGAGCTA
B10: 12(46) (ssDNA)
DNA: B1 DNA
modifications: 2'-OMe C1,C7,G9,C13,A14,G15,A19,C20,A32,G33,G34; idT 5' and 3'
B11: 12(44) (ssDNA)
DNA: B1 DNA
modifications: 2'-OMe C1,G5,C7,G9,C13,A14,G15,A19,C20,A32,G33,G34; idT 5' and 3'
B12: 12(45) (ssDNA)
DNA: B1 DNA
modifications: 2'-OMe C1,C7,G9,C12,A14,G15,A19,C20,A32,G33,G34; idT 5' and 3'
B13: 12(43) (ssDNA)
DNA: B1 DNA
modifications: 2'-OMe C1,G5,C7,G9,C12,A14,G15,A19,C20,A32,G33,G34; idT 5' and 3'
B14: 12(47) (ssDNA)
DNA: B1 DNA
modifications: 2'-OMe C1,G5,C7,G9,C12,C13,A14,G15,A19,C20,C30,A32,G33,G34; idT 5' and 3'
B15: 12(61) (ssDNA)
DNA: B1 DNA
modifications: 2'-OMe C7,G9,A14,G15,A19,C20,A32,G33,G34; P-methyl C12 (between C12 and C13); 5' idT, 3' idT
B16: 12(92) (ssDNA)
DNA: B1 DNA
modifications: 2'-OMe C7,G9,A14,G15,A19,C20,A32,G33,G34; P-methyl G8; 5' idT, 3' idT
B17: 12(77) (ssDNA)
DNA: B1 DNA
modifications: 2'-OMe C7,G9,A14,G15,A19,C20,A32,G33,G34; PS between G8 and G9; 5' idT, 3' idT
B18: 12(97) (ssDNA)
DNA: B1 DNA
modifications: 2'-OMe C7,G9,A14,G15,A19,C20,A32,G33,G34; P-methyl T27; 5' idT, 3' idT
B19: 12(131) (ssDNA)
DNA: B1 DNA
modifications: 2'-OMe C7,G9,A14,G15,A19,C20,A32,G33,G34; P-methyl G8; 5' 40 kDa PEG via ssH linker, 3' idT
B20: 12(119) (ssDNA)
DNA: B1 DNA
modifications: 2'-OMe C7,G9,A14,G15,A19,C20,A32,G33,G34; P-methyl G8,C12,C28; 5' idT, 3' idT
B21: 12(105) (ssDNA)
DNA: B1 DNA
modifications: 2'-OMe C7,G9,A14,G15,A19,C20,A32,G33,G34; PS between G9 and A10; 5' idT, 3' idT
B22: 12(118) (ssDNA)
DNA: B1 DNA
modifications: 2'-OMe C7,G9,A14,G15,A19,C20,A32,G33,G34; P-methyl G8,C12; 5' idT, 3' idT
B23: 12(150) (ssDNA)
DNA: B1 DNA
modifications: 2'-OMe C7,G9,A14,G15,A19,C20,A32,G33,G34; P-isopropoxy between C12 and C13; 5' idT, 3' idT
B24: 12(152) (ssDNA)
DNA: B1 DNA
modifications: 2'-OMe C7,G9,A14,G15,A19,C20,A32,G33,G34; P-butoxy between C12 and C13; 5' idT, 3' idT
B25: 12(151) (ssDNA)
DNA: B1 DNA
modifications: 2'-OMe C7,G9,A14,G15,A19,C20,A32,G33,G34; P-propoxy between C12 and C13; 5' idT, 3' idT
B26: 12(149) (ssDNA)
DNA: B1 DNA
modifications: 2'-OMe C7,G9,A14,G15,A19,C20,A32,G33,G34; P-methyl G5,G8,C12,A16,T21,T23,C28,C30,C31,G34; 5' idT, 3' idT
B27: 12(51) (ssDNA)
DNA: B1 DNA
modifications: 2'-OMe C7,G9,A14,G15,A19,C20,A32,G33,G34; 5' 80 kDa PEG (GL2-800TS) via ssH linker; 3' idT
B28: 12(53) (ssDNA)
DNA: B1 DNA
modifications: 2'-OMe C7,G9,A14,G15,A19,C20,A32,G33,G34; 5' 80 kDa PEG (GL4-800TS) via ssH linker; 3' idT
B29: 12(54) (ssDNA)
DNA: B1 DNA
modifications: 2'-OMe C7,G9,A14,G15,A19,C20,A32,G33,G34; 5' idT; 3' C12 spacer
B30: 12(57) (ssDNA)
DNA: B1 DNA
modifications: 2'-OMe C7,G9,A14,G15,A19,C20,A32,G33,G34; 5' 40 kDa PEG (GL2-400GS2) via ssH linker; 3' C12 spacer
B31: 12(55) (ssDNA)
DNA: B1 DNA
modifications: 2'-OMe C7,G9,A14,G15,A19,C20,A32,G33,G34; 5' C12 spacer; 3' idT
B32: 12(56) (ssDNA)
DNA: B1 DNA
modifications: 2'-OMe C7,G9,A14,G15,A19,C20,A32,G33,G34; 5' 40 kDa PEG (GL2-400GS2) via ssH linker; 3' C6 spacer
B33: 12(52) (ssDNA)
DNA: B1 DNA
modifications: 2'-OMe C7,G9,A14,G15,A19,C20,A32,G33,G34; 5' 80 kDa PEG (GL4-800GS2) via ssH linker; 3' idT
B34: SEQ 26 aptamer (ssDNA)
DNA: CGCTGGGGTACGCTCGGAACCGAGGCAATTGGTCAGCG
B35: SEQ 13 aptamer (ssDNA)
DNA: TGGACGGAACCAGAATACTTTTGGTCTCCA
B36: 12(136) (ssDNA)
DNA: B1 DNA
modifications: 2'-OMe C7,G9,A14,G15,A19,C20,A32,G33,G34; P-methyl C1,G5,G8,C12,A16,T21,T23,C28,C30,C31,G33; idT 5' and 3'
B37: 12(134) (ssDNA)
DNA: B1 DNA
modifications: 2'-OMe C7,G9,A14,G15,A19,C20,A32,G33,G34; P-methyl C1,G5,G8,C12,A16,T21,T23,C28,C30,C31; 5' 40 kDa PEG (GL2-400GS2) via ssH linker; 3' idT
B38: 12(140) (ssDNA)
DNA: B1 DNA
modifications: 2'-OMe C7,G9,A14,G15,A19,C20,A32,G33,G34; P-methyl C1,G5,G8,C12,G15,A16,T21,T23,C28,C30,C31; idT 5' and 3'
B39: 12(137) (ssDNA)
DNA: B1 DNA
modifications: 2'-OMe C7,G9,A14,G15,A19,C20,A32,G33,G34; P-methyl C1,G5,G8,C12,A16,T21,T23,C28,C30,C31,A32; idT 5' and 3'
B40: 12(138) (ssDNA)
DNA: B1 DNA
modifications: 2'-OMe C7,G9,A14,G15,A19,C20,A32,G33,G34; P-methyl C1,G5,G8,C12,A16,C20,T21,T23,C28,C30,C31; idT 5' and 3'
B41: 12(142) (ssDNA)
DNA: B1 DNA
modifications: 2'-OMe C7,G9,A14,G15,A19,C20,A32,G33,G34; P-methyl C1,G5,G8,G9,C12,A16,T21,T23,C28,C30,C31; idT 5' and 3'
B42: 12(146) (ssDNA)
DNA: B1 DNA
modifications: 2'-OMe C7,G9,A14,G15,A19,C20,A32,G33,G34; P-methyl C1,G5,G8,C12,A14,A16,T21,T23,C28,C30,C31; 5' 40 kDa PEG (GL2-400GS2) via ssH linker; 3' idT
B43: SEQ 15 aptamer (ssDNA)
DNA: CCTGGACGGAACCAATACTTGGTCTCCAGG
B44: 12(49) (ssDNA)
DNA: B1 DNA
modifications: 2'-OMe C1,G5,C7,G9,C12,C13,A14,G15,A19,C20,A32,G33,G34; 5' 40 kDa PEG via ssH linker, 3' idT
B45: 12(48) (ssDNA)
DNA: B1 DNA
modifications: 2'-OMe C7,G9,A14,G15,A19,C20,A32,G33,G34; 5' 40 kDa PEG (GL2-400GS2) via ssH linker, 3' idT
B46: 12(42) (ssDNA)
DNA: B1 DNA
modifications: 2'-OMe C1,G5,C7,G9,C12,C13,A14,G15,A19,C20,A32,G33,G34; 5' idT, 3' idT
B47: 12(148) (ssDNA)
DNA: B1 DNA
modifications: 2'-OMe C7,G9,A14,G15,A19,C20,A32,G33,G34; 3' idT

Each binder was assayed against T1, autotaxin (endogenous, human pooled serum) (Homo sapiens, UniProt Q13822 Q13822:36-863) (assay: inhibition; LPA production in serum, 0.025 uM). Conditions: not given.

Binder	activity [% inhibition]
B1	70
B2	71
B3	59
B4	82
B5	87
B6	56
B7	50
B8	90

These binders were tested against T2, autotaxin (ENPP2/NPP2) (Homo sapiens, UniProt Q13822 Q13822:36-863) (assay: inhibition; NPP2 assay, 1 mM pNP-TMP, 0.3 nM autotaxin, 37 C). Conditions: not given.

Binder	IC50 [nM]
B9	10

What follows are binders tested against T2, autotaxin (ENPP2/NPP2) (assay: inhibition; LPA production, 1.0 uM aptamer, ~92% serum, 37C 3 h). Conditions: not given.

Binder	activity [% inhibition]
B10	83
B11	87
B12	86
B13	85
B14	57

Each binder was assayed against T1, autotaxin (endogenous, human pooled …) (assay: inhibition; LPA production in serum, 0.10 uM). Conditions: not given.

Binder	activity [% inhibition]
B15	91
B16	91
B17	88
B18	7
B19	91
B20	97
B21	25
B22	98

These binders were tested against T2, autotaxin (ENPP2/NPP2) (assay: inhibition; NPP2 assay per text (column headed LysoPLD)). Conditions: not given.

Binder	IC50 [nM]
B23	0.17
B24	0.23
B25	0.32

The binders below were run against T2, autotaxin (ENPP2/NPP2) (assay: inhibition; LysoPLD assay, 2 mM 14:0 LPC, 2.1 nM autotaxin, 37 C). Conditions: not given.

Binder	IC50 [nM]
B5	1.6
B26	6.1

What follows are binders tested against T2, autotaxin (ENPP2/NPP2) (assay: inhibition; LPA production, 0.20 uM aptamer, ~92% serum, 37C 3 h). Conditions: not given.

Binder	activity [% inhibition]
B27	91
B28	92
B29	89
B30	93
B31	91
B32	93
B33	92

These binders were tested against T2, autotaxin (ENPP2/NPP2) (assay: inhibition; NPP2 assay, 37 C). Conditions: not given.

Binder	IC50 [nM]
B34	440
B35	110

Each binder was assayed against T2, autotaxin (ENPP2/NPP2) (assay: inhibition; LPA production, 0.025 uM aptamer, ~92% serum, 37C 3 h). Conditions: not given.

Binder	activity [% inhibition]
B36	17
B37	69
B38	29
B39	56
B40	44
B41	44
B42	70

Each binder was assayed against T2, autotaxin (ENPP2/NPP2) (assay: SPR; not more than 10% of SEQ 12 signal; aptamer 0.3 uM; solution A). Conditions: not given.

Binder	binding result
B43	no binding

What follows are binders tested against T1, autotaxin (endogenous, human pooled …) (assay: inhibition; LPA production in serum, 1.0 uM). Conditions: not given.

Binder	activity [% inhibition]
B44	58
B45	92
B46	68

What follows are binders tested against FGF2 (UniProt P09038 P09038:135-288) (assay: SPR; specificity control; FGF2 immobilized, aptamer 0.3 uM; solution A). Conditions: tags: PeproTech.
Chain of FGF2 (P09038 135-288, one chain of several): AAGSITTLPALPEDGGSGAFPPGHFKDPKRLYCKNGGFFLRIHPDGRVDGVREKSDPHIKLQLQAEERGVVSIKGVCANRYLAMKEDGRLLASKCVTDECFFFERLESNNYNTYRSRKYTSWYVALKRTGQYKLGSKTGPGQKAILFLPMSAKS

Binder	binding result
B45	no binding

Each binder was assayed against T2, autotaxin (ENPP2/NPP2) (assay: inhibition; NPP2 assay, 37 C; no SPR binding). Conditions: not given.

Binder	IC50 [nM]
B43	990

What follows are binders tested against T2, autotaxin (ENPP2/NPP2) (assay: inhibition; NPP2 assay, pNP-TMP, 37 C). Conditions: not given.

Binder	IC50 [nM]
B47	6.8
